Target: CsrA (6xHis-CsrA) (UniProt A0A2I3CA03 1-65)
Assay: EMSA; high affinity
Settings: protein: recombinant; tags: 6xHis (named 6xHis-CsrA); chain copies: 2; label: biotin

B1: rraA -64 to +36 RNA (ssRNA)
RNA: AAGGUAUAGAAAAGGAUACUGCUCACUGAAGCAACGCUUGGGUGAGAAAAUUCACGGAGGAAAUAUGAGAGACAUUACACCCGAUAUUUGUGACCAAUUU
- binding result: binds
